Results: patent US20230218715A1

Assays:
Experiment in all cases: cell-based or functional assay
[1] = target: S protein of HCoV strain 229E (HCoV 229E) (UniProt P15423)
[2] = target: S protein of HCoV strain NL63 (HCoV NL63) (UniProt Q6Q1S2)
[3] = target: S protein of HCoV strain OC43 (HCoV OC43) (UniProt P36334)
[4] = target: S protein of MERS-CoV strain EMC/2012 (MERS-CoV strain EMC/2012) (UniProt K9N5Q8)
[5] = target: S protein of SARS-CoV strain CuHK (SARS-CoV strain CuHK)
[6] = target: S protein of SARS-CoV strain Frank (SARS-CoV strain Frank)
[7] = target: S protein of SARS-CoV strain Tor-II (SARS-CoV strain Tor-II) (UniProt P59594)
[8] = target: S protein of SARS-CoV strain Urbani (SARS-CoV strain Urbani)
[9] = target: S protein of SARS-CoV-2 strain USA-WA1/2020 (SARS-CoV-2 strain USA-WA1/2020) (UniProt P0DTC2)

Chain of UniProt K9N5Q8 (K9N5Q8 18-1353): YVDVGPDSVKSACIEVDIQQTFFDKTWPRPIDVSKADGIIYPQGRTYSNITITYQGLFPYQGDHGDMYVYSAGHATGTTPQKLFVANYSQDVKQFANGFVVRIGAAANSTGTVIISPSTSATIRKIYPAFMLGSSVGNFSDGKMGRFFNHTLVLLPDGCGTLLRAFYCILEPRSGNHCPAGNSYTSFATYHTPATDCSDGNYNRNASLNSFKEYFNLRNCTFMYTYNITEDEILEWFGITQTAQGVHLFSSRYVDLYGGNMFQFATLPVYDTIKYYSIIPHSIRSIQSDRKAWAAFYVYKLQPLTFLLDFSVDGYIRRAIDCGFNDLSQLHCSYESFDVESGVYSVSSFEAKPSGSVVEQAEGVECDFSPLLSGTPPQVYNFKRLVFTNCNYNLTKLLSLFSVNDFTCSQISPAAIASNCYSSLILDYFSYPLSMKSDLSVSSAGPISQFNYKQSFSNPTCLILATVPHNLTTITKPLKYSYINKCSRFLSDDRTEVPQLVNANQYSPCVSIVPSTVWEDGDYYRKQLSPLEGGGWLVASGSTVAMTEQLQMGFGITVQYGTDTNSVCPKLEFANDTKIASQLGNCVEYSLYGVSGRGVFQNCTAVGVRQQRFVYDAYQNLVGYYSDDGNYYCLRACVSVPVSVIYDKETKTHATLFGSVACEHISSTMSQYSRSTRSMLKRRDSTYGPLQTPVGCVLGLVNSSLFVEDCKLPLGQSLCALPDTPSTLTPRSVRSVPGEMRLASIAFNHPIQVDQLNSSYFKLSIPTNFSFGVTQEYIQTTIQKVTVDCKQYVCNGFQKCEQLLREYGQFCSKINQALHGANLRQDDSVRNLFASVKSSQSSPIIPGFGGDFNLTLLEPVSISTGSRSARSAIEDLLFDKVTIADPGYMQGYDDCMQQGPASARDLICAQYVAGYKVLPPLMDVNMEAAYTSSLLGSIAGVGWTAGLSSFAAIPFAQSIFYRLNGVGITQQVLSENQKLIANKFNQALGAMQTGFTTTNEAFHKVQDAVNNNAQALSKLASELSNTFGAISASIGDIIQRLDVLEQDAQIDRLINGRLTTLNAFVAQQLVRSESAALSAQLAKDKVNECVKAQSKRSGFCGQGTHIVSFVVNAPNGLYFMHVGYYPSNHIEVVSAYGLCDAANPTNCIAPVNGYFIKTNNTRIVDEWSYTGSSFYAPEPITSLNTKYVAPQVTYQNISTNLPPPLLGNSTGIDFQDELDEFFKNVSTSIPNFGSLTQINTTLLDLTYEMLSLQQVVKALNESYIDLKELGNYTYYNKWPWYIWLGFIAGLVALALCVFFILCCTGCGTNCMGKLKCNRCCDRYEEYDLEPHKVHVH
Chain of UniProt Q6Q1S2 (Q6Q1S2 19-1356): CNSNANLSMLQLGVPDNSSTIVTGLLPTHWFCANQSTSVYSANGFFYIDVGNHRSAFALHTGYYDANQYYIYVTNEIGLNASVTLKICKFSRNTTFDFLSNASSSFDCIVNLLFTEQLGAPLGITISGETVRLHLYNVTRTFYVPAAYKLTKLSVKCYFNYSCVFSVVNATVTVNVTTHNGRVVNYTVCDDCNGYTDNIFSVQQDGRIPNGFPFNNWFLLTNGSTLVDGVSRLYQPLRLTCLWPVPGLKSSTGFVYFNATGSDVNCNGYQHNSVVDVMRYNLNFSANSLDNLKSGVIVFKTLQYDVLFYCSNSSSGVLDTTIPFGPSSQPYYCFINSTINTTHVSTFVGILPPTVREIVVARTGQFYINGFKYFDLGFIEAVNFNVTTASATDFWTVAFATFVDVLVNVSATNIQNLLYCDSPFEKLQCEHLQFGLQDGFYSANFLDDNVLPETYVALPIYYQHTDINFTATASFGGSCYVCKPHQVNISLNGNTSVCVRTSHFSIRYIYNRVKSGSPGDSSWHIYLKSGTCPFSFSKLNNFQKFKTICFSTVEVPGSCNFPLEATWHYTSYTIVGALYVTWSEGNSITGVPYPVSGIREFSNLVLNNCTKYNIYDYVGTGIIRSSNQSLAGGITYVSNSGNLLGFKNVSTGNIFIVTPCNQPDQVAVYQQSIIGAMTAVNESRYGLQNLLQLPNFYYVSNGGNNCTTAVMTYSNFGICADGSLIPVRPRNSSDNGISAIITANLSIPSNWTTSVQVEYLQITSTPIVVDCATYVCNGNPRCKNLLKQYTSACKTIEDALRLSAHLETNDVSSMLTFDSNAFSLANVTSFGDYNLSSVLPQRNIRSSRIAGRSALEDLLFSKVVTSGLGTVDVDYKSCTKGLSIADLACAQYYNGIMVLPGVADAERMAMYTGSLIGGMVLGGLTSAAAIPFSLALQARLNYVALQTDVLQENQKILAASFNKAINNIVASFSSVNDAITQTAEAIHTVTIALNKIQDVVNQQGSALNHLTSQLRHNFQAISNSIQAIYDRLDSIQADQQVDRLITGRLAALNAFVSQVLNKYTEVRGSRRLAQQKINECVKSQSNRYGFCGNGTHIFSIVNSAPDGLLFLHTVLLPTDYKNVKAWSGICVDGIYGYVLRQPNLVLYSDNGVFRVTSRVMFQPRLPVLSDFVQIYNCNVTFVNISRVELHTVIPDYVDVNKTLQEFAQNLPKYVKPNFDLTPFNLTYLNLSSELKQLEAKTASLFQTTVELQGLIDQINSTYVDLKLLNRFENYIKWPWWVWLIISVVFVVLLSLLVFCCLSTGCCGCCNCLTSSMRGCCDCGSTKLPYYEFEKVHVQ
Chain of UniProt P36334 (P36334 14-1353): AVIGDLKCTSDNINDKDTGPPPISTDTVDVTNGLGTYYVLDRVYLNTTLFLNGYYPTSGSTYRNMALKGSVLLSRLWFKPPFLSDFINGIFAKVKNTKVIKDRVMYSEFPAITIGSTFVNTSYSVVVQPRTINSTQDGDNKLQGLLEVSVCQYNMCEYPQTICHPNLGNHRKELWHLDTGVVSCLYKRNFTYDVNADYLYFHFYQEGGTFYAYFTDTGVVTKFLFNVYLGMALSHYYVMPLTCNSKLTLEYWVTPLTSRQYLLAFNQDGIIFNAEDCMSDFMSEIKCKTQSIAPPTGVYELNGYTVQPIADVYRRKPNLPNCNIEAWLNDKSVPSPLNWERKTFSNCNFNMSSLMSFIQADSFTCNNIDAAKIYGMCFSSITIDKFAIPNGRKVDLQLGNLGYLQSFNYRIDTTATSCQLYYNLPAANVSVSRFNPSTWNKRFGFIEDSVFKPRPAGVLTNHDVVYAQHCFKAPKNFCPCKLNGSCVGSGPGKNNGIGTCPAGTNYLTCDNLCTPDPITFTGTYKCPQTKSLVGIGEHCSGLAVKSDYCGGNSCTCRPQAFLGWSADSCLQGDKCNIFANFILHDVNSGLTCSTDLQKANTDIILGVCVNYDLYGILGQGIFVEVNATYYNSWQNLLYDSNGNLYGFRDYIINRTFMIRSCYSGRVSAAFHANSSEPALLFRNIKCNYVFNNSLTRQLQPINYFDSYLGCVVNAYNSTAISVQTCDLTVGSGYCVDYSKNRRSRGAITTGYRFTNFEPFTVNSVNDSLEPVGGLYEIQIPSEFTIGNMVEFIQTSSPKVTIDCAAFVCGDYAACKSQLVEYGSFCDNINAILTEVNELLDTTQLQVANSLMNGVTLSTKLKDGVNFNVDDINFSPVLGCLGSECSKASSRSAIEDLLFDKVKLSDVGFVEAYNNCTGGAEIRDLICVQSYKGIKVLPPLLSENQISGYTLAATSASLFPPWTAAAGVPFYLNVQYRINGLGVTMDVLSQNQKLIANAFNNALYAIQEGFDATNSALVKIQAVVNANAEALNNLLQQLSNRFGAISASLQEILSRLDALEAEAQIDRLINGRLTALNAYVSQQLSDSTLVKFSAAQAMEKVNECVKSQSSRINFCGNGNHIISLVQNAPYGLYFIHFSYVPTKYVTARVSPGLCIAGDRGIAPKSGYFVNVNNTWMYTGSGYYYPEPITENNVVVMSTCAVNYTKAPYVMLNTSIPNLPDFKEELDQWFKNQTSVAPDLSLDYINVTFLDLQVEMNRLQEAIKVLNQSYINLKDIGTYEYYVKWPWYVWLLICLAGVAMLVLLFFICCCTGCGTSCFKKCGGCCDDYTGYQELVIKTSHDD

wild-type griffithsin
Antiviral activity EC50 [1]: 0.18 µg/mL
Antiviral activity EC50 [2]: < 0.0032 µg/mL
Antiviral activity EC50 [3]: 0.16 µg/mL
Antiviral activity EC50 [4]: < 0.124 µg/mL
Antiviral activity EC50 [5]: 0.78 µg/mL
Antiviral activity EC50 [6]: 1.19 µg/mL
Antiviral activity EC50 [7]: 0.61 µg/mL
Antiviral activity EC50 [8]: 0.61 µg/mL
Antiviral activity EC50 [9]: < 0.1 µg/mL
